Patent US20230340151A1 (Pfizer, published 2023)

Assays:
Assay in all cases: flow cytometry on cells displaying the construct
[1] = target: T1, CID1940 (reverse chimera, chicken GUCY2c with human residues) (chicken/human)
T1 chain: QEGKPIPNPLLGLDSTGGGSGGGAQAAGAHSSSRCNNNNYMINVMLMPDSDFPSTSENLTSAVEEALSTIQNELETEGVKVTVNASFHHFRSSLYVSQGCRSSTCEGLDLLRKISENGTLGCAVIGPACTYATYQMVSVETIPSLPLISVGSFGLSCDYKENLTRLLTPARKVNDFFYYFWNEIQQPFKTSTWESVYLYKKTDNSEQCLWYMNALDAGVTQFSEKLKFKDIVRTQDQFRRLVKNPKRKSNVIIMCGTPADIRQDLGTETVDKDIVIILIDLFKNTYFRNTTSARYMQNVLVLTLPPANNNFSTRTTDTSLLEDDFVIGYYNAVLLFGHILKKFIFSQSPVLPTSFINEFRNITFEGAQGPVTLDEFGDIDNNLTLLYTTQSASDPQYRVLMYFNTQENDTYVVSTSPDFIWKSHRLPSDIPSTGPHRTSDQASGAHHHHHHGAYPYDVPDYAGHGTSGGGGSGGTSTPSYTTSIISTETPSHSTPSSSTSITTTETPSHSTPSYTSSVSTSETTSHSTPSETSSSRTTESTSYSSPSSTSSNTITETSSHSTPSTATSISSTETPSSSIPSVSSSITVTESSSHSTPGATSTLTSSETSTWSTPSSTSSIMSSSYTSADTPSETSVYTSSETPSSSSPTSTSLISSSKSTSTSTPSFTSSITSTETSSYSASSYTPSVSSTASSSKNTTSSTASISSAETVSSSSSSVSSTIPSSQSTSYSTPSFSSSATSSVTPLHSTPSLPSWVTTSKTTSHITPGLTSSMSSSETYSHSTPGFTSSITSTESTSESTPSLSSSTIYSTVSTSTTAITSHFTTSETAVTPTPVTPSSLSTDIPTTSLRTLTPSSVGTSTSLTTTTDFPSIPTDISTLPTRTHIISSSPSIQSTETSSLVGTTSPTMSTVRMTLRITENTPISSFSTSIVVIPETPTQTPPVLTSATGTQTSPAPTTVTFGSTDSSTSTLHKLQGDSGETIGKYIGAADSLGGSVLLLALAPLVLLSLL

[2] = target: CID1941 (human GUCY2c point mutant) (human)
[3] = target: T2, CID1879 (human-chicken GUCY2c chimera) (human/chicken)
T2 chain: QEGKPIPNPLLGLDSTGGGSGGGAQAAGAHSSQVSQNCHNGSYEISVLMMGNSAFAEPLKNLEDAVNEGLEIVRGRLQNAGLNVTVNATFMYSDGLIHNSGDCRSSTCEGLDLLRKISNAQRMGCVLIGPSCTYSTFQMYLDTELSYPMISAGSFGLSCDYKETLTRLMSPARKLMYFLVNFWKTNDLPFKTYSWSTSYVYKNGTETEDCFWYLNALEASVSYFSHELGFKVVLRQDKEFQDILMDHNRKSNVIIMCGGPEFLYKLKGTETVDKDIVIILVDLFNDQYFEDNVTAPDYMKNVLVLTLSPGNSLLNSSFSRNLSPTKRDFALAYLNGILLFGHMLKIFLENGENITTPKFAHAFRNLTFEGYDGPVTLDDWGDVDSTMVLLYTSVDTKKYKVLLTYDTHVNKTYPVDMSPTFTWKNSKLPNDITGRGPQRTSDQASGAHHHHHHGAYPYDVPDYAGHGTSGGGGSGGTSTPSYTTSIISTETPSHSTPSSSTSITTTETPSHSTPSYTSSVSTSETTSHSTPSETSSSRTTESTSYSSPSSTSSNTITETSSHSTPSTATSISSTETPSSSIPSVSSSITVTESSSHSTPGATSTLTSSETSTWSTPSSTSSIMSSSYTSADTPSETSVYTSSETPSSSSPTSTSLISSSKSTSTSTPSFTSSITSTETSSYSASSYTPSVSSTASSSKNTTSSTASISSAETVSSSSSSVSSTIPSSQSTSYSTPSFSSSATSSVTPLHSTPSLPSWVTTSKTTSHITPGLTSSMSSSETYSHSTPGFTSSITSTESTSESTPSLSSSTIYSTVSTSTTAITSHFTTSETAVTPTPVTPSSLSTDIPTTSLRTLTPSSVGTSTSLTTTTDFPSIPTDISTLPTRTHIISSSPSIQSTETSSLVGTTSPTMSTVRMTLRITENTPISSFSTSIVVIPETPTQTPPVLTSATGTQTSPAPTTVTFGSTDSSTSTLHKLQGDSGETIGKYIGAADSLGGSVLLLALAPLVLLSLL

[4] = target: CID1873 (human GUCY2c patch mutant) (human/chicken)

Measured: binding result

B1: GUCY2C-1608 (bispecific antibody)
chain 1: DIQLTQSPSSLSASVGDRVTITCRASESVDYYGSSLLQWYQQKPGKAPKLLIYAASKLASGVPSRFSGSGSGTDFTLTISSLQPEDFATYYCQQTRKAYTFGQGTKLEIKGGGSGGGGEVQLVESGGGLVQPGGSLRLSCAASGFTFSDYYMTWVRQAPGKGLEWVAFIRNQARGYTSDHNPSVKGRFTISRDNAKNSLYLQMNSLRAEDTAVYYCARDRPSYYVLDYWGQGTTVTVSSGCPPCPAPEAAGAPSVFLFPPKPKDTLMISRTPEVTCVVVDVSHEDPEVKFNWYVDGVEVHNAKTKPREEQYNSTYRVVSVLTVLHQDWLNGKEYKCKVSNKALPAPIEKTISKAKGQPREPQVCTLPPSREEMTKNQVSLWCLVKGFYPSDIAVEWESNGQPENNYKTTPPVLDSDGSFFLYSKLTVDKSRWQQGNVFSCSVMHEALHNHYTQKSLSLSPG
chain 2: DIQMTQSPSSLSASVGDRVTITCTSSQSLFNVRSQKNYLAWYQQKPGKAPKLLIYWASTRESGVPSRFSGSGSGTDFTLTISSLQPEDFATYYCKQSYDLFTFGGGTKVEIKGGGGSGGGGEVQLVESGGGLVQPGGSLRLSCAASGFTFSSYWMHWVRQAPGKGLEWIGEIKPSNELTNVHEKFKDRFTISVDKAKNSAYLQMNSLRAEDTAVYYCTRTITTTEGYWFFDVWGQGTLVTVSSGCPPCPAPEAAGAPSVFLFPPKPKDTLMISRTPEVTCVVVDVSHEDPEVKFNWYVDGVEVHNAKTKPREEQYNSTYRVVSVLTVLHQDWLNGKEYKCKVSNKALPAPIEKTISKAKGQPREPQVYTLPPCREEMTKNQVSLSCAVKGFYPSDIAVEWESNGQPENNYKTTPPVLDSDGSFFLVSKLTVDKSRWQQGNVFSCSVMHEALHNHYTQKSLSLSPG
notes: also called GUCY2c CD3 bispecific
binds: all assays above
